In paper PMC4759192:

Columns and labels:
[1] = target: complex I (NADH dehydrogenase) (bovine (endogenous in bovine heart)); assay: absorption spectroscopy of the co-purified supercomplex; concentrations of b-type and c-type cytochromes (redox difference spectra) and of complex IV (reduced form) in eight supercomplex samples, room temperature, HEPES-Na pH 7.8 with sucrose
[2] = target: complex IV (cytochrome c oxidase) (bovine (endogenous in bovine heart)); assay: native gel or EMSA; BN-PAGE of bovine heart mitochondria solubilized with digitonin
[3] = target: complex IV (cytochrome c oxidase) (bovine (endogenous in bovine heart)); assay: absorption spectroscopy of the co-purified supercomplex; concentrations of b-type and c-type cytochromes (redox difference spectra) and of complex IV (reduced form) in eight supercomplex samples, room temperature, HEPES-Na pH 7.8 with sucrose
[4] = target: complex III (cytochrome c reductase/cytochrome bc1 complex) (bovine (endogenous in bovine heart)) (UniProt P00157); assay: co-sedimentation + native gel or EMSA; crystalline complex III exchanged into amphipol, stepwise sucrose gradient 0.8-1.2 M in HEPES-Na pH 7.8, 105,000 x g, 15 h, 4 C; fractions by BN-PAGE

| Substance | stoichiometry N (complex IV per complex I) [1] | stoichiometry N [2] | ratio b-type cytochrome/complex IV1 (average) (b-type cytochrome per complex IV monomer) [3] | ratio c-type cytochrome/complex IV1 (average) (c-type cytochrome per complex IV monomer) [3] | stoichiometry N (complex III per complex IV) [3] | stoichiometry N (complex III per complex I) [1] | stoichiometry N [4] |
| --- | --- | --- | --- | --- | --- | --- | --- |
| complex IV (cytochrome c oxidase) | 1 | 2 | – | – | – | – | – |
| complex III (cytochrome c reductase/cytochrome bc1 complex) (from UniProt P00157 1-379; P00125 85-325) | – | – | 3.88 | 2.2 | 2 | 2 | 2 |
